US20160032001A1 (APEXIGEN, published 2016)
Read-outs that look alike come from different tables or passages of the source. Each block holds one binder with its values, some of them ahead of it.

Legend:
[1] = target: T1, RANKL expressed on the surface of 293 cells (UniProt O14788 1-317, limits assumed); experiment: flow cytometry (MFI) on RANKL-transfected 293 cells
T1 construct: whole, on cells; also called RANKL-transfected 293 cells; cells expressing RANKL
T1 sequence (looked up): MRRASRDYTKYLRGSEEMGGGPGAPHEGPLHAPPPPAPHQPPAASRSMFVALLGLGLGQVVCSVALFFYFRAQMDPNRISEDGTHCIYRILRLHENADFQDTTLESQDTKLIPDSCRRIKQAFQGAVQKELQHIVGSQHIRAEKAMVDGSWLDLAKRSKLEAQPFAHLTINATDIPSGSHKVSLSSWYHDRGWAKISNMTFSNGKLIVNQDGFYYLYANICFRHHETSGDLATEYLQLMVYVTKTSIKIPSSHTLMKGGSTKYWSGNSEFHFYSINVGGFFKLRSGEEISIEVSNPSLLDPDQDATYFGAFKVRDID

human RANKL protein [2] = target: T2, human RANKL protein (human, UniProt O14788 140-317, limits assumed); experiment: competition ELISA: RANKL (0.5 ug/ml) pre-incubated with the antibody, then binding to coated RANK (8 ug/ml) detected; blocked partner RANK [table at the lower right]
T2 sequence (looked up): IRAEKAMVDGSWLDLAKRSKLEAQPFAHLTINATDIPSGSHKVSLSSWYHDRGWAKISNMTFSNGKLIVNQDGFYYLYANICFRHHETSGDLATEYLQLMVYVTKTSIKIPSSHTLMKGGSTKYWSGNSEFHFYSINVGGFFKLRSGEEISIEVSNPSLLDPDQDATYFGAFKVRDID

[3] = target: T1, RANKL expressed on the surface of 293 …; experiment: flow cytometry (MFI) on RANKL-transfected 293 cells; remark: listed apart in the source
human RANKL protein [4] = target: T2, human RANKL protein; experiment: competition ELISA: RANKL (0.5 ug/ml) pre-incubated with the antibody, then binding to coated human RANK (8 ug/ml) detected; blocked partner RANK
human RANKL protein [5] = target: T2, human RANKL protein; experiment: surface plasmon resonance
human RANKL protein [6] = target: T2, human RANKL protein; experiment: cell-based or functional assay
human RANKL protein [7] = target: T2, human RANKL protein; experiment: competition ELISA: RANKL (0.5 ug/ml) pre-incubated with the antibody, then binding to coated human RANK (8 ug/ml) detected; blocked partner RANK; remark: listed apart in the source
human RANKL protein [8] = target: T2, human RANKL protein; experiment: as above; remark: listed apart in the source
[9] = target: T1, RANKL expressed on the surface of 293 …; experiment: flow cytometry (MFI) on RANKL-transfected 293 cells; remark: listed apart in the source
[10] = target: T1, RANKL expressed on the surface of 293 …; experiment: as above; remark: listed apart in the source
human RANKL protein [11] = target: T2, human RANKL protein; experiment: competition ELISA: RANKL (0.5 ug/ml) pre-incubated with the antibody, then binding to coated human RANK (8 ug/ml) detected; blocked partner RANK; remark: listed apart in the source
[12] = target: T1, RANKL expressed on the surface of 293 …; experiment: flow cytometry (MFI) on RANKL-transfected 293 cells; remark: listed apart in the source
human RANKL protein [13] = target: T2, human RANKL protein; experiment: ELISA on RANKL protein (OD450nm)

B3: clone 408 rabbit anti-RANKL antibody (antibody, V domains shown)
VH: QSVEESGGRLVTPGTPLTLTCTVSGFSLSTDVVSWVRQAPGKGLEWIGYTWNGGATFYASWAKGRFTFSKTSTTVDLKITSPTTEDTATYFCARGYNGMDPWGPGTLVTVSS
VL: DMTQTPASVEAAVGGAVTIKCQASQNIGSNLAWYHQKPGQPPKLLISKASTLASGVPSRFKGSGSGTEFTLAISDLECADAATYYCQQGYTTKNVVNPFGGGTEVVVK
EC50 [1]: 0.303 µg/mL
IC50 (human RANKL protein [2]): 0.098 µg/mL
EC50 [3]: 0.0898 µg/mL
IC50 (human RANKL protein [4]): 0.058 µg/mL
Kd (human RANKL protein [5]): 0.432 nM
koff (human RANKL protein [5]): 0.000262 s⁻¹
kon (human RANKL protein [5]): 607000 M⁻¹ s⁻¹
IC50 in a RAW cell assay (TRAP activity, OD 405 nM) (human RANKL protein [6]): 0.00644 µg/mL

B4: clone 476 rabbit anti-RANKL antibody (antibody, V domains shown)
VH: QSLEESGGGLVQPEGSPTLTCTAYLIDFSRYGYMCWVRQAPGKGLEWIGCIHAGRSGRTYYANWAKGRFTISKTSSTTVTLQMTSLTAADTATYFCAKSGDSYVGYFALWGPGTLVTVSS
VL: DIVMTQTPASVEAAVGGTVTIKCQASENIYNYLSWYQQKPGQPPKLLIYEASKLASGVSSRFKGSGSGTEFTLTISDLECADAATYYCQSYYDVTSHSYDNPFGGGTEVVVS
EC50 [3]: 0.0632 µg/mL
IC50 (human RANKL protein [7]): 0.0301 µg/mL

B5: clone 480 rabbit anti-RANKL antibody (antibody, V domains shown)
VH: QSLEESGGRLVTPGGSLTLTCTVSGFSLSNYEINWVRQAPGKGLEWIGYIDVGSGTWYASWAKGRFTISKTSTTVDLKITSPTTGDTATYFCSRSYNPMDLWGPGTLVTVSS
VL: DMTQTPASVEVAVGGTVTIKCQASQNIGSNLAWYQQKPGQRPKLLIYSASTLASGVPSRFKGSGSGTQFTLTISGVQCDDAATYYCQQGYSVGNVNNAFGGGTEVVVK
EC50 [3]: 0.172 µg/mL
IC50 (human RANKL protein [7]): 0.0284 µg/mL

B6: clone 193 rabbit anti-RANKL antibody (antibody, V domains shown)
VH: QSVEESGGRLVTPGTPLTLTCTFSGFSLSNNAINWVRQAPGKGLEWIGYTWSGGGTYCASWAKGRFTISKTSSTTVDLKMTSLTTEDTATYFCARAYDSEWDRLDLWGQGTLVTVSS
VL: VMTQTPASVSGPVGGTVTIKCQASQSIGSNLGWYQQKPGQPPKLLIFSASNLESGVPSRFKGSGSGTQFTLTISDLECDDAATYYCQQGYTTNNVLNAFAGGTEVVVK
IC50 (human RANKL protein [8]): 0.0665 µg/mL
EC50 [9]: 0.135 µg/mL

B7: clone 23 rabbit anti-RANKL antibody (antibody, V domains shown)
VH: QEQLKESGGGLVTPGGTLTLTCTASGFSLSSDGMSWVRQAPGKGLEWIGYIYSGSSPYYANWAKGRFTISKTSSTTVDLKMTSLTTEDTATYFCARHGSGGGWYLDIWGPGTLVTVSS
VL: AYDMIQTPASVEVAVGGTVTINCQASQTIGTNLAWYQQKPGQRPKLLIYAASTLPSGVSSRFKGSGSGTQFTLTISDVECSDAATYYCQQAYSVGNVDNAFGGGTEVVVK
notes: also called RabMAb 23; parent 23 rabbit antibody
IC50 (human RANKL protein [2]): 0.041 µg/mL
EC50 [10]: 0.1 µg/mL
Kd (human RANKL protein [5]): 0.162 nM
koff (human RANKL protein [5]): 0.000154 s⁻¹
kon (human RANKL protein [5]): 950000 M⁻¹ s⁻¹
IC50 in a RAW cell assay (TRAP activity, OD 405 nM) (human RANKL protein [6]): 0.00171 µg/mL
IC50 (human RANKL protein [8]): 0.0111 µg/mL
EC50 [9]: 0.0903 µg/mL

B8: clone 547 rabbit anti-RANKL antibody (antibody, V domains shown)
VH: QEQLKESGGGLVTPGGTLTLTCTASGFSLSSNGMSWVRQAPGKGLEWIGYIYSGSSPYYASWAKGRFTISKTSSTTVDLKMTSLTTEDTAKYFCARHVSGGGWYLDIWGPGTLVTVSL
VL: DMIQTPASVEVAVGGTVTINCQASQSIGSNLAWYQQKPGQRPKLLIYGASTLASGVSSRVKGSGSGTQFTFTISDVECTDAATYYCQQAYSISNVDNAFGGGTEVVVK
EC50 [3]: 0.398 µg/mL
IC50 (human RANKL protein [7]): 0.0812 µg/mL

B10: humanized clone 23 antibody, VH 23HZD-1 HC with humanized VL 23 Vk (antibody, V domains shown)
VH: EVQLVESGGGLVQPGGSLRLSCAASGFSLSSDGMSWVRQAPGKGLEWIGYIYSGSSPYYANWAKGRFTISKDSSKNTVYLQMNSLRAEDTAVYFCARHGSGGGWYLDIWGPGTLVTVSS
VL: DIQMTQSPSSLSASVGDRVTINCQASQTIGTNLAWYQQKPGKRPKLLIYAASTLPSGVPSRFSGSGSGTDFTLTISSLQPEDFATYYCQQAYSVGNVDNAFGGGTKVEIK
notes: also called humanized 23 Vk; 23LHZD
IC50 (human RANKL protein [2]): 0.112 µg/mL
EC50 [10]: 0.414 µg/mL

B11: humanized clone 23 antibody, VH 23HZD-1 HC with humanized VL 23 Vkb, IgG1 (antibody, V domains shown)
VH: EVQLVESGGGLVQPGGSLRLSCAASGFSLSSDGMSWVRQAPGKGLEWIGYIYSGSSPYYANWAKGRFTISKDSSKNTVYLQMNSLRAEDTAVYFCARHGSGGGWYLDIWGPGTLVTVSS
VL: DIQMTQSPSSLSASVGDRVTINCQASQSIGSNLAWYQQKPGKRPKLLIYAASTLPSGVPSRFSGSGSGTDFTLTISSLQPEDFATYYCQQAYSVGNVDNAFGGGTKVEIK
notes: also called h23 IgG1
EC50 (human RANKL protein [13]): 0.0425 µg/mL

Other lines, results leading:

EC50 [1]: 0.731 µg/mL
IC50 (human RANKL protein [2]): 0.096 µg/mL
B1: humanized clone 408 anti-RANKL antibody (antibody, V domains shown)
VH: EVQLVESGGGLVQPGGSLRLSCAVSGFSLSTDVVSWVRQAPGKGLEWIGYTWNGGATFYASWAKGRFTFSKDSSKNTVYLQMNSPRAEDTAVYFCARGYNGMDPWGPGTLVTVSS
VL: DIQMTQSPSSLSASVGDRVTIKCQASQNIGSNLAWYQQKPGKPPKLLISKASTLASGVPSRFSGSGSGTDFTLTISSLQPEDFATYYCQQGYTTKNVVNPFGGGTKVEIK

EC50 [1]: 0.361 µg/mL
IC50 (human RANKL protein [2]): 0.127 µg/mL
B2: humanized clone EBI-51-22 anti-RANKL antibody (antibody, V domains shown)
VH: EVQLVESGGGLVQPGGSLRLSCAVSGFSLSTDVLSWVRQAPGKGLEWIGYTWSGGSTYYASWAKGRFTISKDSSKNTVYLQMNSPRAEDTAVYFCARGFNPFDPWGPGTLVTVSS
VL: DIQMTQSPSSLSASVGDRVTIKCQASQNIGSNLAWYQQKPGKRPKLLIYRASTLASGVPSRFSGSGSGTDFTLTISSLQPEDFATYYCQQGYSAGNVDNNAFGGGTKVEIK
notes: also called humanized EBI-51-22; humanized EBI51-22

EC50 [1]: 0.4 µg/mL
IC50 (human RANKL protein [2]): 0.083 µg/mL
IC50 (human RANKL protein [11]): 0.0439 µg/mL
Kd (human RANKL protein [5]): 0.312 nM
koff (human RANKL protein [5]): 0.000275 s⁻¹
kon (human RANKL protein [5]): 880000 M⁻¹ s⁻¹
EC50 [12]: 0.083 µg/mL
IC50 in a RAW cell assay (TRAP activity, OD 405 nM) (human RANKL protein [6]): 0.0036 µg/mL
B9: clone EBI-51-22 rabbit anti-RANKL antibody (antibody, V domains shown)
VH: QSVEESGGRLVTPGTLLTLTCTVSGFSLSTDVLSWVRQAPGKGLEWIGYTWSGGSTYYASWAKGRFTISKTSSTTVDLKITSPTTEDTATYFCARGFNPFDPWGPGTLVTVSS
VL: DMTQTPASVSDPVGGTVTIKCQASQNIGSNLAWYQQKPGQRPKLLIYRASTLASGVSSRFKGSGSGTQFTLTISDLECADAATYYCQQGYSAGNVDNNAFGGGTEVVVK

EC50 (human RANKL protein [13]): 0.0117 µg/mL
B12: h23n IgG2 humanized clone 23 antibody (antibody, V domains shown)
VH: QEQLVESGGGLVQPGGSLRLSCVASGFSLSSDGMSWVRQAPGKGLEWIGYIYSGSSPYYANWAKGRFTISKDSSTNTVFLQMNSLRAEDTAVYFCARHGDGGGWYLDIWGPGTLVTVSS
VL: DIQMTQSPSSLSASVGDRVTINCQASQSIGSNLAWYQQKPGKAPKLLIYAASTLPSGVSSRFSGSGSGTDFTLTINSLEAEDAATYYCQQAYSVGNVDNAFGGGTKVEIK
notes: IgG2; also called h23n VH and VL

IC50 (human RANKL protein [2]): 0.081 µg/mL
EC50 [10]: 0.947 µg/mL
EC50 (human RANKL protein [13]): 0.0238 µg/mL
B13: humanized clone 23 antibody, VH 23HZD-1 HC with humanized VL 23 Vkb, IgG2 (antibody, V domains shown)
VH: EVQLVESGGGLVQPGGSLRLSCAASGFSLSSDGMSWVRQAPGKGLEWIGYIYSGSSPYYANWAKGRFTISKDSSKNTVYLQMNSLRAEDTAVYFCARHGSGGGWYLDIWGPGTLVTVSS
VL: DIQMTQSPSSLSASVGDRVTINCQASQSIGSNLAWYQQKPGKRPKLLIYAASTLPSGVPSRFSGSGSGTDFTLTISSLQPEDFATYYCQQAYSVGNVDNAFGGGTKVEIK
notes: also called humanized 23 vkb; humanized 23 VKB
